This is an account of results in patent US20090220535A1 (REGENTS OF THE UNIVERSITY OF COLORADO, published 2009).

Where only a bound is given, the exact number is not on record here.

Experiment [1] concerns the target T1, HPV11 L1 protein (human papillomavirus type 11, UniProt P04012 1-501).
T1 construct: Full-length HPV11 L1 DNA amplified from pVL11L1
T1 sequence: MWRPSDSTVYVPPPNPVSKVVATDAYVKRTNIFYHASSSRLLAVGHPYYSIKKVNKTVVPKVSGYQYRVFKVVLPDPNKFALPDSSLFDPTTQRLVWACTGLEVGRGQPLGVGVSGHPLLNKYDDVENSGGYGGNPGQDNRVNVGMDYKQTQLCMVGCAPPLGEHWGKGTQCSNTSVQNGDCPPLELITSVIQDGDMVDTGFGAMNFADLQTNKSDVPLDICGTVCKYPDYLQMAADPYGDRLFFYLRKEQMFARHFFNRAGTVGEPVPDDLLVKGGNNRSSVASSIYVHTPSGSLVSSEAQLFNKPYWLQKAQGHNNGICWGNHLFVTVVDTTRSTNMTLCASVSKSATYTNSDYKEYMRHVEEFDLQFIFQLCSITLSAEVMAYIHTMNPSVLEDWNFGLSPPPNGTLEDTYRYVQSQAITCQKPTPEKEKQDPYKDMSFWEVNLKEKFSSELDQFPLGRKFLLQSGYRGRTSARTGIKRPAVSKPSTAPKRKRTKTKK
In words: co-expression, glutathione sepharose eluate, densitometry.

In experiment [2] the target is T1, HPV11 L1 protein. In words: densitometry after size exclusion chromatography of the complex.
Experiment [3] concerns the target T1, HPV11 L1 protein. Nature of the experiment: densitometry of partially purified glutathione sepharose eluates.
Experiment [4] concerns the target T1, HPV11 L1 protein. Nature of the experiment: co-expression, glutathione sepharose eluate, densitometry of Coomassie-stained SDS-PAGE.

B1: HPV11 GST-L2 (313-455) (other)
chain: GARIHYFQDISPVTQAAEEIELHPLVAAENDTFDIYAEPFDPIPDPVQHSVTQSYLTSTPNTLSQSWGNTTVPLSIPSDWFVQSGPDITFPTASMGTPFSPVTPALPTGPVFITGSDFYLHPTWYFARRRRKRIPLFFTDVAA
notes: Carboxy-terminal third of HPV11 L2; also called pXA/BN-HPV11L2/313-455; HPV GST=L2(313455); not shown: glutathione-S-transferase (GST) fusion partner from vector pXA/BN (multiple cloning site of pGEX-4T-2); thrombin-cleavab
For the molecule B1, the “L1:L2” value in experiment [1] is 2 L1:L2 ratio; in experiment [2], ~5 L1:L2 ratio; in experiment [3] it was ~2 L1:L2 ratio; in experiment [4], > 1 L1:L2 ratio.
